Data: patent US20240254259A1 (NATIONAL RESEARCH COUNCIL CANADA, published 2024)
Values belong to the molecule of their own block, whether it stands above or below them.

How the values were obtained:
[1] = target: full length human DPEP-1 displayed on HEK293T / HEK293-6E cells (human) (UniProt P16444); test: flow cytometry, biotinylated negative control VHH at 100 nM on HEK-293T cells overexpressing human DPEP-1, streptavidin-PE; the same number stands in all seven panels
[2] = target: T1, full length human DPEP-1 displayed on HEK293T / HEK293-6E cells (human, UniProt P16444 17-385); test: flow cytometry, biotinylated VHH titrated on HEK-293-6E cells overexpressing hDPEP-1
T1 construct: whole, on cells; GPI-anchored on the cell surface; also called hDPEP-1
T1 sequence (looked up): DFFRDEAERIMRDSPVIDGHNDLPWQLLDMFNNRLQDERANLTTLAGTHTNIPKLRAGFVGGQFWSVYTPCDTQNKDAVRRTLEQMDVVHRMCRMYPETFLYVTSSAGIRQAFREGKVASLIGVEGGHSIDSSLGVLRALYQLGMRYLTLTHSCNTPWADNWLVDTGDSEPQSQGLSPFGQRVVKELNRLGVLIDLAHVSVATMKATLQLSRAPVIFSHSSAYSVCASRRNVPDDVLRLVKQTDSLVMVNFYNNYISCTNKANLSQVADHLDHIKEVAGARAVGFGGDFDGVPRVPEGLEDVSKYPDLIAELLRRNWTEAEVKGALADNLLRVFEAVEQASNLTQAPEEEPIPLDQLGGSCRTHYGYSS
Method: (§1) VHH concentrations at 50% binding, EC₅₀ values, were calculated from graphs and recorded in Table 5.
(§2) Binding of biotinylated VHHs to hDPEP-1 was detected using streptavidin-phycoerythrin (SPE). The binding profile of the anti-DPEP-1 rabbit pAb (Proteintech, Cat #12222-1-AP) positive control is shown as inset. Binding of the rabbit pAb was detected using goat anti-rabbit IgG antibody conjugated to phycoerythrin (Thermo Fisher, Cat #P-2771MP). Graphs in FIG. 3B with similar maximal fluorescence plateau are grouped together and shown in FIG. 3C (A20.1 VHH is shown for comparison). Three independent experiments were performed and data were collected on a Beckman CytoFLEX Analyzer followed by analysis with FlowJo v10.6.2 (TreeStar). EC₅₀ values were calculated from FIG. 3C and recorded in Table 5. Based on the binding measured by flow cytometry, four affinity groups may be identified: medium (sdABP01/03), high (sdABP02/04/07), high-very high (sdABP05), and very high (sdABP06).

[3] = target: T2, recombinant human DPEP-1 ectodomain (human, UniProt P16444 17-385, chemically biotinylated with NHS-LC-LC-Biotin in the SPR assay); test: SPR, single-cycle kinetics, biotinylated hDPEP-1 ectodomain captured, VHH flowed; mean ± SD of triplicates
T2 construct: range 17-385; The limits 17-385 are given for the immunogen; also called hDPEP-1 ectodomain; hDPEP-1 ECD
T2 sequence (looked up): T1 sequence (looked up)
Method: (§3) The binding affinity of DPEP-1-specific VHHs was analyzed by surface plasmon resonance (SPR). Recombinant human DPEP-1 (hDPEP-1) ectodomain was chemically biotinylated using EZ-Link™ NHS-LC-LC-Biotin (Thermo Fisher, Cat #21343) following manufacturer instructions. Biotinylated recombinant hDPEP-1 ectodomain was then captured on CM5 sensorchip surfaces using Biotin CAPture reagent followed by flowing over surfaces VHHs at concentrations ranging from 0.625-10 nM (sdABP02), 2.5-40 nM (sdABP03/05/07), 6.25-100 nM (sdABP06) and 12.5-200 nM (sdABP01/04). Dark lines represent data points, light lines fit to the data. Data were generated in triplicates. Diagonal lines represent equilibrium dissociation constants, KDs. KD values (mean±SD) obtained in FIG. 2A are shown in Table 4. sdABP01 binding data gave poor fit to the 1:1 binding model. As a result, its KD could not be determined with certainty. A better fit was observed using the heterogeneous ligand binding model.

[4] = target: T1, full length human DPEP-1 displayed on …; test: flow cytometry on human DPEP-1-expressing cells, monomeric VHH (Table 8 restating Table 5)
Method: as §1, §2

[5] = target: T2, recombinant human DPEP-1 ectodomain; test: SPR single-cycle kinetics; biotinylated h-DPEP1 captured on the chip, VHH flowed over; 1:1 binding model, 25 C; one replicate of three [con't]
Method: (§4) Recombinant human DPEP-1 was biotinylated as described in Example 3 and captured on CM5 sensorchip surfaces using Biotin CAPture reagent followed by flowing over surfaces VHHs at concentrations ranging from 0.625-10 nM (sdABP02), 2.5-40 nM (sdABP03/05/07), 6.25-100 nM (sdABP06) and 12.5-200 nM (sdABP01/04). Dark lines represent data points, light lines fit to the data. Data were generated in triplicates and data for one replicate set are shown.
as §3

[6] = target: T2, recombinant human DPEP-1 ectodomain; test: SPR single-cycle kinetics; biotinylated h-DPEP1 captured on the chip, VHH flowed over; 1:1 binding model, 25 C; one replicate of three
Method: as §4, §3

Molecule: Clostridium difficile toxin A-specific A20.1 VHH
geometric mean fluorescence intensity (number above the histogram) [1]: 106

B2: sdABP07 (VHH with BAP and His6 tags) (VHH)
VHH: EVQLVESGGGLVEYGGSLRLSCAASESTLDNYAIAWFRQAPGKEREVVSCVGKSGGRSDYADSVKGRFTISRDNAKNTVYLQMNSLKPEDTAVYSCAARRVWFGGCVLGTSQGQYDYWGQGTQVTVSS
modifications: biotin on the Biotinylation Acceptor Peptide in the flow cytometry and immunoprecipitation assays
notes: Monomeric llama VHH with BAP and His6; also called sdAb07
EC50 [2]: 15 nM | Kd [3]: 5.09 nM | EC50 [4]: 15 nM | Kd [5]: 5.05 nM | koff [5]: 0.00835 s⁻¹ | kon [5]: 1.65e+06 M⁻¹ s⁻¹

B3: sdABP06 (VHH with BAP and His6 tags) (VHH)
VHH: EVQLVDSGGGLVQPGGSLRLSCAASGFTFSNYDMSWVRQGPGKGPEWVSIISYVGGLTRYSDSVKGRFTISRDNAKNTLYLQMNSLNTEDTALYYCARVKSMHPTSTTGEYDYRGRGTQVTVSS
modifications: biotin on the Biotinylation Acceptor Peptide in the flow cytometry and immunoprecipitation assays
notes: Monomeric llama VHH with BAP and His6; also called sdAb06
EC50 [2]: 0.96 nM | Kd [3]: 6.32 nM | EC50 [4]: 0.96 nM | Kd [5]: 5.91 nM | koff [5]: 0.00103 s⁻¹ | kon [5]: 175000 M⁻¹ s⁻¹

More lines, in order of falling EC50 [2], values ahead:

EC50 [2]: 550 nM | Kd [3]: 27 nM | EC50 [4]: 550 nM | Kd [5]: 26.9 nM | koff [5]: 0.0605 s⁻¹ | kon [5]: 2.25e+06 M⁻¹ s⁻¹
B1: sdABP03 (VHH with BAP and His6 tags) (VHH)
VHH: EVQLVESGGGLVQPGGSLRLSCATSEFTLDYYAIGWFRQAPGKEREGVSCISSSGGTTNYADSVKGRFTISSDNAKNTVSLQMNSLRPEDTAVYYCAAARVSAYYLGNYGCLNAEYGYWGQGTQVTVSS
modifications: biotin on the Biotinylation Acceptor Peptide in the flow cytometry and immunoprecipitation assays
notes: Monomeric llama VHH with BAP and His6; also called sdAb03

EC50 [2]: 5.3 nM | Kd [3]: 10.6 nM | EC50 [4]: 5.3 nM | Kd [6]: 12.8 nM | koff [6]: 0.0276 s⁻¹ | kon [6]: 2.15e+06 M⁻¹ s⁻¹
B4: sdABP05 (VHH with BAP and His6 tags) (VHH)
VHH: EVQLVESGGGLVQPGGSLRLSCAASGFTFSTYAMTWVRKAPGKGFEWISSIDSGGGVTLYADSVKGRFTISKDNAKNTLYLQMNNLKPDDTAVYYCVKNYGSTSLQSRGQGTQVTVSS
modifications: biotin on the Biotinylation Acceptor Peptide in the flow cytometry and immunoprecipitation assays
notes: Monomeric llama VHH with BAP and His6; also called sdAb05
